According to article PMC7141649:

Biological target: actin (coated on the BLI biosensor)
Test: BLI; Octet RED, 25°C; APS biosensor coated with actin; rWLP (1 mM) in PBS pH 7.4 with 0.05% Tween 20 and 0.1% BSA; 300 s association, 120 s dissociation

## recombinant whirlin-like protein (as used in biolayer interferometry) (natural protein)
  Kd: 193 nM
